Drawing on US20070065896A1, “Methods and kits for quantifying metabolites or analytes” (priority 2003, published 2007), this text covers Specific activity, Km and Vmax for one molecule.

Data set [1] in a line: Specific activities of recombinant enzymes towards different substrates (Kredich and Tomkins). It counts as biochemical. The text has this:
Specific activities (micromol/min/mg protein) towards different substrates
(§1) Assayed according to Kredich and Tomkins (Journal of Biological Chemistry 241, 4955-4965, 1966)

Data set [2] in a line: Kinetic properties of recombinant enzymes. Type of data set: biochemical. The note with it: ± SD, n in brackets.
Text: as §1

The mark [3] stands for this setting: substrate O-succinyl-L-homoserine.

B1: PA3107: Recombinant N-terminal His-tagged O-acetyl-L-homoserine thiol lyase from Pseudomonas aeruginosa, encoded by gene PA3107 (MetZ, Genbank AAA83435) (protein, UniProt P55218 1-403, looked up)
O-succinylhomoserine …: MTQDWDAGRLDSDLEGAAFDTLAVRAGQRRTPEGEHGEALFTTSSYVFRTAADAAARFAGEVPGNVYSRYTNPTVRTFEERIAALEGAEQAVATASGMSAILALVMSLCSSGDHVLVSRSVFGSTISLFDKYFKRFGIQVDYPPLSDLAAWEAACKPNTKLFFVESPSNPLAELVDIAALAEIAHAKGALLAVDNCFCTPALQQPLKLGADVVIHSATKYIDGQGRGMGGVVAGRGEQMKEVVGFLRTAGPTLSPFNAWLFLKGLETLRIRMQAHSASALALAEWLERQPGIERVYYAGLPSHPQHELARRQQSGFGAVVSFDVKGGRDAAWRFIDATRMVSITTNLGDTKTTIAHPATTSHGRLSPEDRARAGIGDSLIRVAVGLEDLDDLKADMARGLAAL
modifications: N-terminal His tag
For the molecule B1, the results for the Specific activity in data set [1] (substrate O-acetyl-L-homoserine), in data set [1] (substrate O-acetyl-serine) and in data set [1] (setting [3]) were <0.1 micromol/min/mg protein, <0.1 micromol/min/mg protein and 139 micromol/min/mg protein, respectively. Further, the Km in data set [2] (Km for Na2S, determined with 15 mM O-succinyl-L-homoserine) stood at 0.8 ± 0.2 mM; in data set [2] (Km for O-succinyl-L-homoserine), 4.4 ± 1 mM. Further, the Vmax in data set [2] (substrate Na2S) was 174.2 ± 39.8 (3) μmol/min/mg protein; in data set [2] (setting [3]) it was 180.4 ± 21.0 (3) μmol/min/mg protein.
